Test results as given in PMC7022617, “Structural and Functional Aspects of G-Quadruplex Aptamers Which Bind a Broad Range of Influenza A Viruses”.

Molecular target: hemagglutinin HA1 subunit H5 (recombinant, Abcam ab190125) (Influenza A virus A/Vietnam/1203/2004 …, UniProt Q6DQ33 17-346)
Experiment: SPR; 10 mM K+
Conditions: protein: commercial

| Binder | Kd [nM] | Kd (parallel intramolecular G4) [nM] |
| --- | --- | --- |
| TTGGGGTTATTTTGGGAGGGCGGGGGTT (structured_DNA) [RHA0385] | 13 ± 3 |  |
| TTGGGGTAAGAAGGGAGGGCGGGGGTT (structured_DNA) [G7-TAAGAA] | 60 ± 10 |  |
| TTGGGGTTATTAAGGGAGGGCGGGGGTT (structured_DNA) [G7-TTATTAA] |  | 30 ± 10 |
| TTGGGGTTAGGGAGGGCGGGGGTT (structured_DNA) [G7-TTA] | 20 ± 6 |  |
